In paper PMC11535040, “Requirement of Nek2a and cyclin A2 for Wapl-dependent removal of cohesin from prophase chromatin” (The EMBO Journal, 2024):

Target: T1, Flag-tagged Pds5a (human, UniProt Q29RF7 1-1337)
T1 construct: Pds5a, human; insert by PCR on human cDNA; also called Flag-Pds5; source: Hek293T, transfected (alone or with eGFP-Nek2aΔMR and eGFP-Δ86-cyclin A2), taxol-arrested
T1 sequence (looked up): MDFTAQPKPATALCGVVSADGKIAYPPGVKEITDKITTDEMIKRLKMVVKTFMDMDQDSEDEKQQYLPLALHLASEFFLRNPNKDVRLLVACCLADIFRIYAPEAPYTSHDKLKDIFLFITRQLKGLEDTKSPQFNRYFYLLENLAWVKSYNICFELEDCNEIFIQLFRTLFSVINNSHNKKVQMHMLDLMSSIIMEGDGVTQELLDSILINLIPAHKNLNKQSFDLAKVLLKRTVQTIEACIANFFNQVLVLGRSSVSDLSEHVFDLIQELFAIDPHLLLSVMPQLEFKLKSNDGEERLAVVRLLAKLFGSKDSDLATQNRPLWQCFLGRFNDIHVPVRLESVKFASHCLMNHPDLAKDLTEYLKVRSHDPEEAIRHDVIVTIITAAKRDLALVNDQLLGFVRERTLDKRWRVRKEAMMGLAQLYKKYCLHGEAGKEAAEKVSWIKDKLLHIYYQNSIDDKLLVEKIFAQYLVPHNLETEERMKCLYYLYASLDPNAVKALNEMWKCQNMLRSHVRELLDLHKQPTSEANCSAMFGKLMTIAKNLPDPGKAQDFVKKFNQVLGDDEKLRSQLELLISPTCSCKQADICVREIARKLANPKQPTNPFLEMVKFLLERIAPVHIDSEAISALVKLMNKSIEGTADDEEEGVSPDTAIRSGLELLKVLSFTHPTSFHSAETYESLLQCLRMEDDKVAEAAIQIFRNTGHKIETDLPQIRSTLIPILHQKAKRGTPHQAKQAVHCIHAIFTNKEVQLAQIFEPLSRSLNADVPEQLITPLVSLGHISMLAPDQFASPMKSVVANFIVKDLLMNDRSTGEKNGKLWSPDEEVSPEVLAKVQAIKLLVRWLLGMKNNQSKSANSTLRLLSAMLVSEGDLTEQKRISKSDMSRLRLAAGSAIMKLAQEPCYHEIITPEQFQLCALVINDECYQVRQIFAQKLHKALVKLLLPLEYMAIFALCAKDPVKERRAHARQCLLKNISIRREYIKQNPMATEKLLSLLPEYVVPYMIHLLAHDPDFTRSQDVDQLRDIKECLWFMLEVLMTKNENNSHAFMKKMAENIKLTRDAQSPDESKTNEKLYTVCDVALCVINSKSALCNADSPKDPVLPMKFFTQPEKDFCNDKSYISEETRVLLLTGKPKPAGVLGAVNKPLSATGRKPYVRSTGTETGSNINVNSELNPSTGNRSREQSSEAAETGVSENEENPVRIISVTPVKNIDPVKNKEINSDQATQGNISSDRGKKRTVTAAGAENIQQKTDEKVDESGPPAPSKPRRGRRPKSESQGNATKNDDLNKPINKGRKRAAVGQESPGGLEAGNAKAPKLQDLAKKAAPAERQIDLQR
Experiment: pull-down; Flag-Pds5a or -b affinity-purified on anti-Flag beads from chromatin-free lysates of taxol-arrested Hek293T cells (expressed alone or with Nek2aΔMR and/or Δ86-cyclin A2); beads incubated with a mixture of recombinant Wapl (2 µl) and sororin (0.3 µg) in 15 µl cleavage buffer with kinase inhibitors, 20 min at 37 °C; bound and unbound fractions by immunoblotting
Conditions: both partners purified

B1: recombinant human Wapl (natural protein, UniProt Q7Z5K2 1-1190, looked up)
chain: MTSRFGKTYSRKGGNGSSKFDEVFSNKRTTLSTKWGETTFMAKLGQKRPNFKPDIQEIPKKPKVEEESTGDPFGFDSDDESLPVSSKNLAQVKCSSYSESSEAAQLEEVTSVLEANSKISHVVVEDTVVSDKCFPLEDTLLGKEKSTNRIVEDDASISSCNKLITSDKVENFHEEHEKNSHHIHKNADDSTKKPNAETTVASEIKETNDTWNSQFGKRPESPSEISPIKGSVRTGLFEWDNDFEDIRSEDCILSLDSDPLLEMKDDDFKNRLENLNEAIEEDIVQSVLRPTNCRTYCRANKTKSSQGASNFDKLMDGTSQALAKANSESSKDGLNQAKKGGVSCGTSFRGTVGRTRDYTVLHPSCLSVCNVTIQDTMERSMDEFTASTPADLGEAGRLRKKADIATSKTTTRFRPSNTKSKKDVKLEFFGFEDHETGGDEGGSGSSNYKIKYFGFDDLSESEDDEDDDCQVERKTSKKRTKTAPSPSLQPPPESNDNSQDSQSGTNNAENLDFTEDLPGVPESVKKPINKQGDKSKENTRKIFSGPKRSPTKAVYNARHWNHPDSEELPGPPVVKPQSVTVRLSSKEPNQKDDGVFKAPAPPSKVIKTVTIPTQPYQDIVTALKCRREDKELYTVVQHVKHFNDVVEFGENQEFTDDIEYLLSGLKSTQPLNTRCLSVISLATKCAMPSFRMHLRAHGMVAMVFKTLDDSQHHQNLSLCTAALMYILSRDRLNMDLDRASLDLMIRLLELEQDASSAKLLNEKDMNKIKEKIRRLCETVHNKHLDLENITTGHLAMETLLSLTSKRAGDWFKEELRLLGGLDHIVDKVKECVDHLSRDEDEEKLVASLWGAERCLRVLESVTVHNPENQSYLIAYKDSQLIVSSAKALQHCEELIQQYNRAEDSICLADSKPLPHQNVTNHVGKAVEDCMRAIIGVLLNLTNDNEWGSTKTGEQDGLIGTALNCVLQVPKYLPQEQRFDIRVLGLGLLINLVEYSARNRHCLVNMETSCSFDSSICSGEGDDSLRIGGQVHAVQALVQLFLERERAAQLAESKTDELIKDAPTTQHDKSGEWQETSGEIQWVSTEKTDGTEEKHKKEEEDEELDLNKALQHAGKHMEDCIVASYTALLLGCLCQESPINVTTVREYLPEGDFSIMTEMLKKFLSFMNLTCAVGTTGQKSISRVIEYLEHC
notes: Wapl, human; insert by PCR on human cDNA; Isolated from mitotically arrested cells; also called GFP-SUMOstar-Wapl; source: Hek293T, transiently transfected, taxol-arrested; not shown: GFP, N-terminal, cleaved; SUMOstar, N-terminal, cleaved
binding result: binds
